Test results: patent US20110165145A1, “IGF-II/IGF-IIE BINDING PROTEINS” (priority 2008, published 2011)

B1: M0068-E03: human anti-IGF-II/IGF-IIE Fab from phage display library (protein)
light: QDIQMTQSPSSLSASVGDRVTITCRASQSINTYLNWYQQKPGKAPKVLIHAASTLESGVPSRFSGSGSATEFTLTISSLQPEDFATFYCQQSYSVPFTFGPGTRLSSKRTVAAPSVFIFPPSDEQLKSGTASVVCLLNNFYPREAKVQWKVDNALQSGNSQESVTEQDSKDSTYSLSSTLTLSKADYEKHKVYACEVTHQGLSSPVTKSFNRGEC
heavy: EVQLLESGGGLVQPGGSLRLSCAASGFTFSEYVMAWVRQAPGKGLEWVSSIVSSGGYTKYADSVKGRFTISRDNSKNTLYLQMNSLRAEDTAVYYCAKDMTYSGDAFDVWGQGTMVTVSSASTKGPSVFPLAPSSKSTSGGTAALGCLVKDYFPEPVTVSWNSGALTSGVHTFPAVLQSSGLYSLSSVVTVPSSSLGTQTYICNVNHKPSNTKVDKKVEPKSCAAAHHHHHHGAAEQKLISEEDLNGAAEASSASNA
B2: X0005-H01: germlined IgG counterpart of M0064-E04 in Table 6 (antibody, V domains shown)
VH: EVQLLESGGGLVQPGGSLRLSCAASGFTFSVYDMNWVRQAPGKGLEWVSSISSSGGGTLYADSVKGRFTISRDNSKNTLYLQMNSLRAEDTAVYYCARDSDTSSYYWYYDLWGRGTLVTVSS
VL: DIQMTQSPSSLSASVGDRVTITCQASHDISNYLNWYQQKPGKAPKLLIYAASRLQSGVPSRFSGSGSGTDFTLTISSLQPEDFATYYCQQSYSFPRTFGQGTRLEIK

Assays:
IGF-IIE [1] = target: T1, IGF-IIE (Homo sapiens, UniProt P01344); assay: IGF-IIE stimulated Ba/F3 cell proliferation, sFabs (MTS assay); assay type: cell-based; conditions: 72 h
T1 construct: the construct comprising amino acids 1-104, which encompass the E domain
T1 sequence (P01344 25-128): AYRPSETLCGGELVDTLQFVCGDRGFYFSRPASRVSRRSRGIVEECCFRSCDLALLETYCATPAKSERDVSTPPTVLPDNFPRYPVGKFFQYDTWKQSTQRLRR
Protocol: (§1) Ba/F3 cells were cultured in complete medium (90% RPMI 1640+10% FBS+10 ng/ml IL-3+2 mM L-Alanyl-Glutamine+1×Pen/Strep). Cells at passage 6 to 15 were used for the high throughput cell proliferation assay. IGF-II (67aa), IGF-IIE (104aa) were at 10 μg/ml in PBS, kept at −70° C. IL-4 was purchased from R&D system, Cat#: 404-ML, and anti-IGF-II antibody was purchased from R&D system, Cat#: MAB292. 34 sFabs from batch 1 and batch 2 in a median scale purification, all in PBS, were screened.
(§2) IGF-II was prepared at concentration of 400 ng/ml; IGF-IIE at 800 ng/ml; sFab at 200 μg/ml in PBS. 25 μl of IGF-II or IGF-IIE was preincubated with 25 μl of sFab in 96-well plate, triplicate for each sFab, 30 min at room temperature in a total volume of 50 μl/well. […]
(§3) The MTS assay was performed as follows: • Add 20 μl of CellTiter 96 Aqueous One Solution Reagent to each well • Incubate at 37° C., 5% CO2 for additional 4 h. • Read plate for absorbance at a microplate spectrophotometer at wavelength 490 nm. […]
(§4) MTS Assay: • Add 20 μl of CellTiter 96 Aqueous One Solution Reagent to each well • Incubate at 37° C., 5% CO2 for additional 4 h. • Read plate for absorbance at a microplate spectrophotometer at wavelength 490 nm.

IGF-II = target: T2, IGF-II (Homo sapiens, UniProt P01344); assay: IGF-II stimulated Ba/F3 cell proliferation, sFabs (MTS assay); assay type: cell-based; conditions: 72 h
T2 construct: IGF-II (amino acids 1-67)
T2 sequence (P01344 25-91): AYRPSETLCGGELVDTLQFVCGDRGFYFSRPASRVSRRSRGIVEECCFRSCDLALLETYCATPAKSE
Protocol: as §1, §2, §3, §4

IGF-IIE [2] = target: T1, IGF-IIE; assay: Affinity measurements of IgGs by SPR (BIACORE), IGF-IIE; assay type: binding; conditions: IgG

Molecule	inhibitory effect on IGF-IIE stimulated Ba/F3 cell proliferation (screening) (IGF-IIE [1]; sFab 50 μg/ml (1 μM), MTS)	inhibitory effect on IGF-IIE stimulated Ba/F3 cell proliferation (dose response, in words) (IGF-IIE [1]; sFab 50 μg/ml down to 0)	inhibitory effect on IGF-II stimulated Ba/F3 cell proliferation (screening) (IGF-II; sFab 50 μg/ml (1 μM), MTS)	inhibitory effect on IGF-II stimulated Ba/F3 cell proliferation (dose response, in words) (IGF-II; sFab 50 μg/ml down to 0)	Kd (IGF-IIE [2]) [nM]
B1	significant inhibitory effect	significant inhibitory effect	significant inhibitory effect	significant inhibitory effect	–
B2	–	–	–	–	0.26
